Experimental data reported in patent US20220193270A1, “METHOD FOR ENHANCING TUMOR GROWTH” (MINERVA BIOTECHNOLOGIES CORPORATION, priority 2013, published 2022).

What was measured:
[1] = molecular target: T1, PSMGFR peptide of the MUC1* extracellular domain (Homo sapiens, UniProt P15941); assay: ELISA binding to PSMGFR peptide; conditions: FIG. 47, FIG. 48b
T1 sequence (P15941 1110-1154 limits assumed): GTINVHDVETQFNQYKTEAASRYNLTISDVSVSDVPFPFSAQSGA
Source text: We made recombinant human NM23, also called NME1, dimers that bear the […] mutation that stabilizes dimers. We previously reported that human NME1 dimers bind to the PSMGFR portion of the extracellular domain of the MUC1* receptor (Smagghe et al. 2013). We also made recombinant human NME7-AB that is secreted as a monomer. […] We made recombinant bacterial NME proteins found in Halomonas Sp. 593 (‘HSP 593’) and in Porphyromonas gingivalis W83 that had high sequence homology to human NME1 and had been reported to exist in dimer state (FIG. 48 and FIG. 49). HSP 593 expressed well in E. coli and a significant portion was present as a dimer, which population was then purified by FPLC and confirmed the dimer population (FIG. 48a).

[2] = system: MUC1-positive T47D breast cancer cells; assay: RT-PCR of cancer stem cell markers and chromatin rearrangement factors in T47D cells cultured in serum-free minimal media with agent; format: cell-based, human
Description: Example 3: Agents that are able to maintain stem cells in the naïve state transform cancer cells into cancer stem cells wherein only a small number of cells are required for engraftment. Cancer cells were cultured according to standard practice. In the controls, the cancer cells were cultured in their normal media: RPMI for T47D breast cancer cells, DU145 and PC3 prostate cancer cells. However, the test agents, recombinant proteins human NME1 dimers, bacterial HSP593 NME1 dimers, human NME7-AB and 2i, were added to a serum-free minimal media to eliminate potential interference from the many growth factors and cytokines in serum.
Serum-free Minimal Media 500 mL includes the following components: 394 mL DMEM/F12, GlutaMAX; 100 mL Knockout™ Serum Replacement; 5.0 mL 100×MEM Non-essential Amino Acid Solution; 0.9 mL P-mercaptoethanol, 55 mM stock.
To this serum-free minimal media, rhNME1 (aka NM23) was added to a final concentration of 8 nM, or bacterial HSP593 recombinant NME1 was added to a final concentration of 8 nM, or rhNME7-AB was added to a final concentration of 4 nM, or 2i inhibitors, PD0325901 and CHIR99021, which inhibit the MAP kinase pathway and GSK3, respectively, were added to a final concentration of 3 μM and 1 μM.
When a rho kinase inhibitor, “Ri” or “ROCi”, was added it was Y27632 from Stemgent (Cambridge, Mass.), added immediately before use to a final concentration of 10 uM.
Example 3a: Breast cancer T47D cells were cultured either in the traditional RPMI growth media or in a minimal stem cell media to which was added either human NME1 dimers, also known as NM23-H1, bacterial HSP593 NME1 dimers, human NME7-AB, or kinase inhibitors known as ‘2i’. What these agents have in common is that they are each able to promote the growth of stem cells in the naive state or are able to revert primed state stem cells to the less mature naive state. We observed that some of the T47D cancer cells cultured in any of these agents became non-adherent. These ‘floaters’ were also morphologically different. The addition of a rho kinase inhibitor, called ‘Ri’ or ‘ROCP here caused most of the cells to remain attached to the surface. […] When a rho kinase inhibitor is added, all the cells remain attached but the RT-PCR measurements indicate that the resultant measure is of a mixture of the cells that were transformed and those that were not or were not yet.
Example 3c: In this example, the effect of ‘2i’ inhibitors on cancer cells was tested. Recall that 2i is the name given to 2 small molecules, […] that inhibit the MAP kinase pathway and GSK3 respectively. […] In this experiment, we cultured MUCl-positive T47D breast cancer cells in minimal media to which was added either 2i or NME7-AB.

T47D breast cancer cells = assay: T47D xenograft engraftment, cells mixed with Matrigel plus NME7, with or without daily NME7 injections; format: in vivo, nu/nu mice
Description: Example 1: Immune-compromised nu/nu mice between 40-60 days old were implanted with 90-day estrogen release pellets to foster the engraftment and growth of breast tumor cells. Human T47D breast cancer cells were mixed 1:2 with Matrigel then injected into the flank of the mouse (4 million each mouse), six (6) mice per group. In a second group, cancer cells were mixed with Matrigel at the same 1:2 ratio (100 uL cells: 200 ul Matrigel) except, human recombinant NME7-AB was added into the cell/Matrigel mix to a final NME7 concentration of 16 nM (6 mice). Of those six (6) mice, three (3) were randomly chosen to receive NME7 injections daily (100 uL at 32 nM), after day 14. […] After Day 14, the mice whose tumor cells were mixed with NME7 were also injected once daily with human recombinant NME7. […] After Day 14, half of the mice were also injected once daily with human recombinant NME7. […] Dashed lines indicate mice that were also injected with NME7 after Day 14.

T47D cancer stem cells = assay: Tumor initiation and metastasis from low numbers of NME7-AB-induced T47D cancer stem cells, with or without daily NME7-AB injections; format: in vivo, nu/nu female mice
Description: T47D breast cancer cells were cultured as described in Example 3a above. After 7-10 days culture in minimal media to which was added rhNME7-AB to a final concentration of 4 nM, floating cells were collected. […] The floating cells were counted and re-suspended in PBS. The NME7-induced cancer stem cells were mixed 1:2 with reduced growth factor Matrigel; that is 2 parts Matrigel to 1 part cells. A range of ratios of cancer cells to NME7 or the injection schedule of NME7 is expected to vary from one mouse strain to another and from one tumor type to another.
The cancer stem cells were implanted in the flank of female nu/nu mice which had previously been implanted with a 90-day release estrogen pellet in the shoulder area. Four (4) groups of six (6) mice each were implanted with either 50, 100, 1,000 or 10,000 T47D cancer stem cells. In each case the total volume injected into each mouse was 100 uL. Half of the mice in each group were injected daily with 200 uL of recombinant human NME7-AB in the flank near but not at the cancer stem cell implantation site.
Animals were monitored for food intake and body weight, which were normal and stable. Two (2) independent and blinded tumor measurements were taken once a week and recorded.

[3] = serum-free minimal media with agent vs RPMI, FIG. 6
[4] = summary statement, cells not named

B1: NME7-AB: recombinant human NME7 variant (A and B domains, SEQ ID NO:39) secreted as a monomer; 'NME7' in the experiments means this protein (protein)
chain: MEKTLALIKPDAISKAGEIIEIINKAGFTITKLKMMMLSRKEALDFHVDHQSRPFFNELIQFITTGPIIAMEILRDDAICEWKRLLGPANSGVARTDASESIRALFGTDGIRNAAHGPDSFASAAREMELFFPSSGGCGPANTAKFTNCTCCIVKPHAVSEGLLGKILMAIRDAGFEISAMQMFNMDRVNVEEFYEVYKGVVTEYHDMVTEMYSGPCVAMEIQQNNATKTFREFCGPADPEIARHLRPGTLRAIFGKTKIQNAVHCTDLPEDGLLEVQYFFKILDN
modifications: Human NME7-AB
notes: 'NME7' in the experiments means this protein
binding to PSMGFR portion of the MUC1* extracellular domain [1]: bind to and dimerize | expression of NANOG, KLF2, KLF4 and TBX3 ([2]; FIG. 6): modest increases | expression of CDH1 (E-cadherin), MUC1 and NANOG ([2]; FIG. 7): increases | expression of CXCR4, SOX2 and OCT4 ([2]; FIG. 7): dramatic increases | expression of stem cell markers KLF2 and KLF4 ([2]; FIG. 7): modest increases | expression level of the cancer stem cell markers ([2]; FIG. 9 and FIG. 10, combinations with 2i versus NME7-AB alone): even higher expression level | expression of MBD3, CHD4, BRD4 and JMJD6 ([2]; cancer cells cultured in agent, FIG. 13, FIG. 14): naturally suppressed | overexpression of metastasis receptor CXCR4 ([2]; floaters after seven (7) days in recombinant human NME7-AB, FIG. 21 legend): more than 100 fold | expression of CXCR4 over control cells cultured in RPMI media ([2]; floating cells after 7-10 days in minimal media with 4 nM rhNME7-AB, cells used for implantation): 130 times | expression of chromatin rearrangement factors MBD3 and CHD4 ([2]; minimal media with agent, FIG. 13, FIG. 14): suppressed expression | expression of metastatic receptor CXCR4 relative to T47D cells in normal growth media ([2]; serum-free minimal media with agent as single growth factor vs RPMI, FIG. 6): ~200 times | CDH1 (E-cadherin) expression increase ([2]; serum-free minimal media with agent vs RPMI): about 10 fold | MUC1 expression increase [2, 3]: about 10 fold | OCT4 expression increase [2, 3]: about 50 times | SOX2 expression increase [2, 3]: ~200 times | up-regulation of CXCR4 [2, 4]: 200 × | up-regulation of KLF4 [2, 4]: 4 × | up-regulation of MUC1 [2, 4]: 10 × | up-regulation of SOX2 [2, 4]: > 150 × | engraftment rate (T47D breast cancer cells; cancer cells mixed with NME7 prior to implantation alone): 33% | engraftment rate (T47D breast cancer cells; mixed with NME7 prior to implantation plus NME7 injections into the animal after cell implantation): 66% | implanted mice showing tumor growth characteristic of engraftment (T47D breast cancer cells; of six (6) implanted mice, T47D mixed with Matrigel and NME7 (two of six with standard Matrigel)): 4 | average growth increase from Day 7 until day 21 (T47D breast cancer cells; tumors mixed with NME7 prior to implantation (57% without it)): 144% | mice that developed tumors (T47D cancer stem cells; all 24 mice implanted with 50, 100, 1,000 or 10,000 NME7-induced cancer stem cells): 67% | number of implanted cells that initiate tumors in mice (T47D cancer stem cells; cancer stem cells generated by culture in NME7-AB): ≤ 50 cells | time after which cancers metastasized (T47D cancer stem cells; group injected with NME7 daily): about 50 days | mice that formed tumors (T47D cancer stem cells; implanted with NME7-induced cancer stem cells and receiving daily injections of NME7): 83% | mice that formed tumors (T47D cancer stem cells; implanted with NME7-induced cancer stem cells, no circulating NME7 (no daily injections)): 50% | tumor-bearing mice that developed cancer metastasis (multiple tumors) (T47D cancer stem cells; of the daily NME7-injected mice that formed tumors, by approximately Day 50): 80%
